# Test results from US20220332804A1 (CSL INNOVATION, published 2022).
# Numbering of substitutions follows the chain as printed.
# B1: RF16-242 (antibody, human IgG4 S228P, lambda, V domains shown)
# VH: EVQLLQSGAEVKKPGESLKISCKGSGYSFTSYWIGWVRQMPGKGLEWMGIIYPGDSDTRYSPSFQGQVTISADKSISTAYLQWSSLKASDTAMYYCARRGHYGDYFDYWGQGTLVTVSS
# VL: SYELTQPPSVSVSPGQTARITCSGDALPKKYAYWYHQKSGQAPVLVIYEDRRRPSEIPERFSGSSSGTMATLTITGAQVEDEGVYFCYSRDRAGNQRVFGGGTQLTVLG
# notes: pH-dependent anti-C2 antibody from a phage display library
# Tests used:
# Test in all cases: SPR, KD relative to WT C2;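 note: biacore SPR at 37 °C, anti-C2 mAbs captured on anti-human IgG chips with alanine or serine point mutants of C2 as analyte, KD from 1:1 fit compared with wild-type C2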
# [1] = target: T1, human C2 L439A (human, UniProt P06681 21-752)
# T1 sequence: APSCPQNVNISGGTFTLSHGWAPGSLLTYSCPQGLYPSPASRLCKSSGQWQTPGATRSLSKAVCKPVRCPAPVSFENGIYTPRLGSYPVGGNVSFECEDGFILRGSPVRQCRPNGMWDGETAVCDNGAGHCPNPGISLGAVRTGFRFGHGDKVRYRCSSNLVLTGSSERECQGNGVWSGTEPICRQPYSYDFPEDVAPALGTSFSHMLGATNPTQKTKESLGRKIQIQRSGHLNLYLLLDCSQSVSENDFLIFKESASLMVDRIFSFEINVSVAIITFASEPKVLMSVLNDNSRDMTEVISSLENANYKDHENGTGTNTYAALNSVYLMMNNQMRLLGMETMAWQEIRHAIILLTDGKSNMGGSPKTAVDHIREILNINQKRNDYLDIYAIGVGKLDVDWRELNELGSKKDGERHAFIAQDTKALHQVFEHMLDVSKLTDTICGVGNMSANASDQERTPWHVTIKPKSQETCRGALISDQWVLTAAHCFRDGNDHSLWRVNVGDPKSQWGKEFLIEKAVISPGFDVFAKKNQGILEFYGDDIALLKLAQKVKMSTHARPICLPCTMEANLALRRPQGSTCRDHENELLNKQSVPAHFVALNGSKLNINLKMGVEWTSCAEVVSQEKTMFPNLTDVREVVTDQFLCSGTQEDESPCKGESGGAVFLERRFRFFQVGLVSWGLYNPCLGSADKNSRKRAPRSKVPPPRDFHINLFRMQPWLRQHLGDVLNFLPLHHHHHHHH
# [2] = target: T2, human C2 D419A (human, UniProt P06681 21-752)
# T2 sequence: T1 sequence with D399A, A419L
# [3] = target: T3, human C2 F437A (human, UniProt P06681 21-752)
# T3 sequence: T1 sequence with F417A, A419L
# [4] = target: T4, human C2 T317A (human, UniProt P06681 21-752)
# T4 sequence: T1 sequence with T297A, A419L
binder,measurement,setting,value
B1,Fold diff,[1],24 fold
same,Fold diff,[2],2 fold
same,Fold diff,[3],15 fold
same,Fold diff,[4],1 fold
